Assay results taken from PMC8814668, “Mechanism of Atg9 recruitment by Atg11 in the cytoplasm-to-vacuole targeting pathway” (The Journal of Biological Chemistry, 2022).
Values joined by “and” are separate entries in the source; they are usually repeats but may differ in a detail not shown here. Identical values can stand only once. Blank lines part the entries; values can stand above or below the binder they belong to.

Experiments:
[1] = molecular target: T1, EGFP-Atg11 (full-length yeast Atg11) (yeast (S. cerevisiae), UniProt Q12527 1-1178); test: NMR titration; 1H-15N HSQC of 0.2 mM labelled Atg9-NTD, unlabelled EGFP-Atg11 added stepwise (0.02, 0.04, 0.08 mM); 20 mM Bis-Tris pH 6, 300 mM NaCl; 298 K, 600 MHz; read-out: loss of peak intensity; details: both partners purified
T1 construct: Atg11, S. cerevisiae, full length, 135 kDa; also called EGFP tagged Atg11; not shown: EGFP, N-terminal, kept
T1 sequence (looked up): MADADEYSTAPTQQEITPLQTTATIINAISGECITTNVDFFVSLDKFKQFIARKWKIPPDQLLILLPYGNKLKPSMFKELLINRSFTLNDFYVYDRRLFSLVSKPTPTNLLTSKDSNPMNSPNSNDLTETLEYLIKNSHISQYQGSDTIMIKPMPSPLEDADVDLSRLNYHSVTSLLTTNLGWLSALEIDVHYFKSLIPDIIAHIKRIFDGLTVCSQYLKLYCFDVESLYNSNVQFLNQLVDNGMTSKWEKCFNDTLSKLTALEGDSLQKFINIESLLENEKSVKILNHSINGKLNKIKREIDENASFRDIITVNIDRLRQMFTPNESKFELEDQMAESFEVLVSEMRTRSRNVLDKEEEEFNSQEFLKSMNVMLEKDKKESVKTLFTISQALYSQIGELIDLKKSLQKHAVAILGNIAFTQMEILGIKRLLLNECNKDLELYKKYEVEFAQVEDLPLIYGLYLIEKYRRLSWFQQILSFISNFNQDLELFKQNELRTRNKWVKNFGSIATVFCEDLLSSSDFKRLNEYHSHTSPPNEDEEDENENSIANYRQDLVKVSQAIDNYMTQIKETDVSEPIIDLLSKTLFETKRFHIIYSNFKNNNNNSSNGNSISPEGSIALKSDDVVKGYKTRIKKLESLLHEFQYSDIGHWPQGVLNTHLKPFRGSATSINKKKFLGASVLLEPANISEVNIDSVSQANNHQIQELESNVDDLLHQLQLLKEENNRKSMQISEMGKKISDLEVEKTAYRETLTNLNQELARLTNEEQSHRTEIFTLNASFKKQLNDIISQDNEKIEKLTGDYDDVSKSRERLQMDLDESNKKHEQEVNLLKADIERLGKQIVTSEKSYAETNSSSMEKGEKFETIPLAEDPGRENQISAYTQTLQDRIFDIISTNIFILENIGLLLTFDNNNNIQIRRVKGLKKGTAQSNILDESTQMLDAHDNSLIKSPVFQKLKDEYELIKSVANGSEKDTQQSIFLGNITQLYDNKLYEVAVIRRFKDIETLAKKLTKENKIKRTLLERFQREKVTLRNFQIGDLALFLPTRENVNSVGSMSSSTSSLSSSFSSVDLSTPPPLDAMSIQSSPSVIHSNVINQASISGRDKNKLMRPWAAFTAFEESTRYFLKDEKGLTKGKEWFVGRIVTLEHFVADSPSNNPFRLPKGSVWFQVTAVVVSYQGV

[2] = molecular target: T1, EGFP-Atg11 (full-length yeast Atg11); test: ITC; Atg9-NTD (300 to 500 μM, syringe) into EGFP-Atg11 (50 to 100 μM, cell); 25 °C; 20 mM Tris pH 7.4, 300 mM NaCl; single binding site; two replicates; details: both partners purified

- binding result [1]: binds
B1: Atg9-NTD(1–285) (domain or fragment, S. cerevisiae, UniProt Q12142 1-285, looked up)
chain: MERDEYQLPNSHGKNTFLSRIFGLQSDEVNPSLNSQEMSNFPLPDIERGSSLLHSTNDSREDVDENDLRVPESDQGTSTEEEDEVDEEQVQAYAPQISDGLDGDHQLNSVTSKENVLETEKSNLERLVEGSTDDSVPKVGQLSSEEEEDNEFINNDGFDDDTPLFQKSKIHEFSSKKSNTIEDGKRPLFFRHILQNNRPQRDTQKLFTSSNAIHHDKDKSANNGPRNINGNQKHGTKYFGSATQPRFTGSPLNNTNRFTKLFPLRKPNLLSNISVLNNTPEDRIN
notes: Atg9, S. cerevisiae, N-terminal disordered domain, residues 1-285; The EGFP tag was cleaved with 3C protease for the sample of the resonance assignment; also called Atg9 NTD (residues 1–285); fragment 1 to 285

- Kd [2]: 1.09 µM
- dH [2]: -5.87 ± 1.34 kcal/mol
- stoichiometry N [2]: 0.931 and 0.94
B2: Atg9-NTD-(1–255)-mCherry, wild type (domain or fragment, S. cerevisiae, UniProt Q12142 1-255, looked up)
chain: MERDEYQLPNSHGKNTFLSRIFGLQSDEVNPSLNSQEMSNFPLPDIERGSSLLHSTNDSREDVDENDLRVPESDQGTSTEEEDEVDEEQVQAYAPQISDGLDGDHQLNSVTSKENVLETEKSNLERLVEGSTDDSVPKVGQLSSEEEEDNEFINNDGFDDDTPLFQKSKIHEFSSKKSNTIEDGKRPLFFRHILQNNRPQRDTQKLFTSSNAIHHDKDKSANNGPRNINGNQKHGTKYFGSATQPRFTGSPLNNT
notes: mCherry is named for the bead assay; also called mCherry-tagged Atg9-NTD; not shown: mCherry, C-terminal, kept

- binding result [1]: binds
B3: Atg9-NTD (29–255)-mCherry (domain or fragment, S. cerevisiae, UniProt Q12142 29-255, looked up)
chain: VNPSLNSQEMSNFPLPDIERGSSLLHSTNDSREDVDENDLRVPESDQGTSTEEEDEVDEEQVQAYAPQISDGLDGDHQLNSVTSKENVLETEKSNLERLVEGSTDDSVPKVGQLSSEEEEDNEFINNDGFDDDTPLFQKSKIHEFSSKKSNTIEDGKRPLFFRHILQNNRPQRDTQKLFTSSNAIHHDKDKSANNGPRNINGNQKHGTKYFGSATQPRFTGSPLNNT
notes: also called shorter construct of Atg9-NTD; not shown: mCherry, C-terminal, kept
